Measurements published in patent US20170320956A1 (KYMAB, published 2017).
Like-named read-outs stand apart in the source and are kept apart here.

T1: recombinant human LIGHT-214K, FLAG-tagged extracellular domain (human)
T1 construct: the IgK leader peptide is marked only by underlining (not visible here), so its residues were not removed; Trimer
T1 chain: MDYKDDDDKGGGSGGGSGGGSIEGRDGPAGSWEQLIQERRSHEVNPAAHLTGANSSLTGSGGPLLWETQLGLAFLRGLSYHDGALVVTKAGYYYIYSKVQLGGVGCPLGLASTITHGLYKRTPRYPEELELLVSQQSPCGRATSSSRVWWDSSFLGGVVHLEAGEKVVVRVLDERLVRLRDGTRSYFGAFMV

T2: recombinant human LIGHT-214E, FLAG-tagged extracellular domain (human)
T2 construct: Trimer; Biotinylated in some assays
T2 chain: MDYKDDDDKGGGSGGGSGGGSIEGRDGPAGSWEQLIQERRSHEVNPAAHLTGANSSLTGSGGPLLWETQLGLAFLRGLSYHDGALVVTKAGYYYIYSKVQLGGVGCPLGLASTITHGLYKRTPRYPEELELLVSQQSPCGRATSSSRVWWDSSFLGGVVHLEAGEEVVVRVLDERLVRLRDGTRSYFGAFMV

T3: mouse LIGHT (mouse, UniProt Q9QYH9 72-239, limits assumed)
T3 construct: also called murine LIGHT
T3 sequence (looked up): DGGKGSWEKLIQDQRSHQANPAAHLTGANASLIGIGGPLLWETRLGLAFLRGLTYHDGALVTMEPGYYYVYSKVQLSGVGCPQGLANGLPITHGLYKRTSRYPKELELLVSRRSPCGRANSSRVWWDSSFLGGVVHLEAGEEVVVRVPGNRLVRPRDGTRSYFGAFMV

T4: rabbit LIGHT protein, FLAG-tagged extracellular domain (rabbit)
T4 chain: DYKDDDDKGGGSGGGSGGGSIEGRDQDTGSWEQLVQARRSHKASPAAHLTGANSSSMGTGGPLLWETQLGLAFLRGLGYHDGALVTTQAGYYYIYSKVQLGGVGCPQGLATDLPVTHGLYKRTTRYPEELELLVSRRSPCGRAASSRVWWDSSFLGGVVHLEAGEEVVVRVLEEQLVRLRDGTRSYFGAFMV


Assays:
[1] = molecular target: T1, recombinant human LIGHT-214K, …; experiment: SPR cross-binding study, IgG4(PE) format; column hLIGHT 214K Binder
Method: All antibodies tested in the competition SPR were in human IgG4(PE) format (see Example 5 for re-formatting methods). To investigate antibodies that may share the same binding region on LIGHT, an SPR based assay was carried out on the ProteOn™ XPR36 Array System. […] The anti-human IgG surface was used as a capture surface to capture test antibodies as “ligands” for analysis. Using the ProteOn™ XPR36 Array System ability to address the capture surface in either the vertical or horizontal orientation the assay was carried out as follows. The “Ligand” antibodies were captured in the vertical orientation, and then a 1 in 1000 dilution of mouse serum was used to block the capture surface in the horizontal orientation. LIGHT was then passed over the capture surface in the horizontal orientation and bound to the captured ligand antibody, after which the same ligand antibody was passed over the “antibody-LIGHT” complex, (LIGHT is a trimer, so this ensures all available LIGHT molecules are bound to by the Ligand antibody), again the second application of the ligand antibody was in the vertical orientation. […] Binding/no-binding is determined by monitoring the sensorgrams, which were double referenced using a non-LIGHT binding antibody as a control sample and was included with every set of ligand antibodies run. […]

[2] = molecular target: T2, recombinant human LIGHT-214E, …; experiment: HTRF competition, LTβR-Fc binding to Flag-hLIGHT-214E
Method: (§1) The following methods were carried out with a titration of inhibitor in order to establish the clone potency as measured by IC50 values in the assay. 5 μl of Flag-tagged hLIGHT (in-house) diluted to 2.5 nM final concentration (10 nM working concentration) in HTRF buffer with 5 μl of a titration of antibody purified from hybridoma supernatant diluted in HTRF assay buffer from 300 nM final (1200 nM working concentration) was pre-incubated for 1 hour at room temperature. To wells used to define total binding, 5 μl of LIGHT (10 nM working, 2.5 nM final) and 5 μl of hybridoma maintaining media (HMM,)) were added. To wells used to define non specific binding (receptor only) 10 μl of HMM was added. Total and non specific binding wells were pre-incubated for 1 hr at RT in the same plate as wells containing titration of inhibitor.
LIGHT receptor was diluted in HTRF assay buffer and added to all wells, 5 μl/well of HVEM-Fc or LTβR-Fc (R&D systems) at 1.2 nM for HVEM (0.3 nM final) and 0.4 nM for LTβR (0.1 nM final).

[3] = molecular target: T2, recombinant human LIGHT-214E, …; experiment: HTRF competition, HVEM-Fc binding to Flag-hLIGHT-214E
Method: as §1

[4] = molecular target: T1, recombinant human LIGHT-214K, …; experiment: SPR ProteOn, mAb captured on anti-mouse IgG, LIGHT 256 nM, 25 C, apparent affinity
Method: (§2) SPR analysis was carried out using the ProteOn™ XPR36 Array System (BioRad). Anti-mouse IgG (GE Healthcare BR-1008-38) was immobilised on a GLC biosensor surface using amine coupling, the surface was then blocked using 1M ethanolamine. […] Apparent affinities for the LIGHT-antibody interaction were determined using the 1:1 model inherent to the ProteOn XPR36 analysis software. The assay was run using HBS-EP (Teknova) as running buffer and carried out at 25° C.

[5] = molecular target: T5, recombinant cynomolgus monkey LIGHT, FLAG-tagged extracellular domain (cynomolgus (Macaca fascicularis), UniProt E9NVF7 59-240); experiment: as above
T5 construct: extracellular domain; also called cynomolgus LIGHT; cyno LIGHT
Method: as §2
Target sequence in this assay (E9NVF7 entry or part of it): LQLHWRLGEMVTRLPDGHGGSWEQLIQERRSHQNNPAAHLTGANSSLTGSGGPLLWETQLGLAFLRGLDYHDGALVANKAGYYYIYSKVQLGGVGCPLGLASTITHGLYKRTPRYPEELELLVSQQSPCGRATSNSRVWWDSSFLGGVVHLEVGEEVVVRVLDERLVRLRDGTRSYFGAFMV

[6] = molecular target: T2, recombinant human LIGHT-214E, …; experiment: as above
Method: as §2

[7] = molecular target: T2, recombinant human LIGHT-214E, …; experiment: cell-based or functional assay
[8] = molecular target: T3, mouse LIGHT; experiment: SPR ProteOn, mAb captured on anti-mouse IgG
[9] = molecular target: human LIGHT-214E, full length, expressed on the surface of CHO-S cells (human, UniProt O43557 1-240); experiment: FACS, CHO-S cells expressing hLIGHT-214E
[10] = molecular target: T2, recombinant human LIGHT-214E, …; experiment: HTRF competition, AlexaFluor 647 LTβR-Fc binding to Flag-hLIGHT-214E
Method: as §1
(§3) The final IgG4(PE) format lead panel was analysed for neutralization activity as in Example 3. Antibodies were tested for their ability to neutralize LIGHT binding to its receptors, HVEM and LTβR, in an HTRF assay. Antibodies were also tested for their ability to neutralize LIGHT-induced IL-8 release by HT29 colon carcinoma cells.
(§4) HTRF assays were performed as per Example 3, with the following modifications: HVEM-Fc and LTβR-Fc were labelled with AlexaFluor 647, and an anti-Flag K antibody (Cisbio) was used for detection.

[11] = molecular target: T4, rabbit LIGHT protein, FLAG-tagged …; experiment: SPR ProteOn, mAb captured on anti-human IgG, 25 C
Method: This created a capture surface suitable for capturing human antibodies. The LIGHT antibodies were captured on this anti-human IgG surface, and then human and rabbit LIGHT proteins were passed over captured LIGHT Abs at a concentration of 200 nM. A buffer injection was used to double reference the LIGHT binding sensorgrams. The assay was run at 25° C., using HBS-EP as running buffer.

[12] = molecular target: T1, recombinant human LIGHT-214K, …; experiment: SPR ProteOn, mAb captured on anti-human IgG, 37 C
[13] = molecular target: T5, recombinant cynomolgus monkey LIGHT, …; experiment: SPR ProteOn, mAb captured on anti-human IgG, 37 C
[14] = molecular target: T2, recombinant human LIGHT-214E, …; experiment: SPR ProteOn, mAb captured on anti-human IgG, 37 C
[15] = molecular target: T2, recombinant human LIGHT-214E, …; experiment: cell-based or functional assay
[16] = molecular target: T2, recombinant human LIGHT-214E, …; experiment: HTRF competition, AlexaFluor 647 HVEM-Fc binding to Flag-hLIGHT-214E
Method: as §1, §3, §4

[17] = molecular target: T3, mouse LIGHT; experiment: SPR ProteOn, mAb captured on anti-human IgG
[18] = molecular target: T2, recombinant human LIGHT-214E, …; experiment: HTRF competition, AlexaFluor 647 HVEM-Fc binding to Flag-hLIGHT-214E
[19] = molecular target: T2, recombinant human LIGHT-214E, …; experiment: HTRF competition, AlexaFluor 647 LTβR-Fc binding to Flag-hLIGHT-214E
[20] = molecular target: T1, recombinant human LIGHT-214K, …; experiment: SPR ProteOn, mAb captured on anti-human IgG, 25 C, apparent affinity

Binder | IC50 [2] | IC50 [3] | Kd [4] | Kd [5] | HT29 IL-8 release, IC50 [7] | binding result [8] | binding result [9] | IC50 [10] | binding result [11] | Kd [12] | HT29 IL-8 release, IC50 [15] | IC50 [16] | binding result [17] | IC50 [18] | IC50 [19] | other results
117C06 in human IgG4(PE) format (antibody, V domains shown) VH: QVQLVQSGAEVKKPGASVKVSCKASGYTFVNFGISWVRQAPGQGLEWMGWISVYSGNTNYAQKLQGRVTLTTDTSTTTAYMELRSLRSDDTAVYYCARHNWNDYWGQGTLVTVSS VL: not shown |  |  |  |  |  |  |  |  |  |  |  |  |  |  |  | binding result [1]: no binding
18E04 (purified from hybridoma supernatant, mouse IgG) (antibody, V domains shown, Murine C / human V chimeric IgG, lambda, purified from hybridoma supernatant) VH: QVLLVQSGAEVKKPGASVKVSCKASGYTFTHFDINWVRQATGQGLEWMGWMNPDSDNTDYAQEFQGRVTMTRDTSISTAYMELSSLRSEDTAVYYCARGGTTLDYWGQGTLVTVSS VL: SYELTQPPSVSVSPGQTARITCSGDALPKKYAYWYQQKSGQAPVLVIYEDSKRPSGIPERFSGSSSGTMATLTISGAQVEDEADYYCYSTDSSDNHVIFGGGTKLTVL | 1.64 nM | 1.32 nM | 2.33 nM | 3.11 nM | 0.327 nM | no binding | binds |  |  |  |  |  |  |  |  | 
13H04 in human IgG4(PE) format (antibody, V domains shown) VH: QVQLVQSGAEVKKPGASVKVSCKASGYTFTSYGISWVRQAPGQGLEWMGWISAHNANTNYAQKLQGRVTMTTDTSTSTAYMELRSLRSDDTAMYYCARLYRNWFDPWGQGTLVTVSS VL: QSALTQPASVSGSPGQSITISCTGTSSDVGGYNYVSWYQQHPGKAPKLMIYDVSKRPSGVSNRFSGSKSGNTASLTISGLQAEDEADYYCCSYAGSSTLLFGGGTKLTVL |  |  |  |  |  |  |  | 3.15 nM | binds | 0.401 nM | 1.22 nM | 1.29 nM |  |  |  | Kd [13]: 0.207 nM; Kd [14]: 0.293 nM
01C02 in human IgG4(PE) format (antibody, V domains shown) VH: QVQLVQSGAEVQKPGASVMVSCKASGYTFTYYGISWVRQAPGQGLEWMGWISANSGNTNYAQKFQGRVTMTTDTSTNTAYMELRSLRTDDTAVYYCAKGGVAVLEYWGQGTLVTVSS VL: DIQLTQSPSFLSASVGDRVTITCWASQGISSYLAWYQQKPGKAPNLLIYVASTLQSGVPSRFSGSGSGTEFTLTISSLQPEDFATYYCQQLKIYPLTFGGGTKVEIK |  |  |  |  | 0.261 nM |  |  | 3.48 nM | binds | 0.822 nM | 0.26 nM | 1.64 nM | no binding | 1.64 nM | 3.48 nM | 

Further lines, with some results ahead:

IC50 [2] | IC50 [3] | Kd [4] | Kd [5] | HT29 IL-8 release, IC50 [7] | binding result [8] | binding result [9] | IC50 [10] | binding result [11] | Kd [12] | HT29 IL-8 release, IC50 [15] | IC50 [16] | binding result [17] | IC50 [18] | IC50 [19] | Binder | other results
2.06 nM | 1.08 nM | 296 nM | 0.257 nM | 0.166 nM | no binding | binds |  |  |  |  |  |  |  |  | 98C07 (purified from hybridoma supernatant, mouse IgG) (antibody, V domains shown, Murine C / human V chimeric IgG, kappa, purified from hybridoma supernatant) VH: QVQLVESGGGLVKPGGSLRLSCAASGFTFSDYYMSWIRQAPGKGLEWVSYISRSSFIYYSESVKGRFTISRDNAKNSLYLQMNSLRAEDTAVYYCARWELSPFDYWGQGTLVTVSS VL: DIQMTQSPSSLSASVGDRVTITCRASQGISNYLAWFQQKPGKAPKSLIYAASSLQSGVPSKFSGSGSGTDFTLTISSLQPEDFATYFCQQYNTYPFTFGPGTKVDIK | Kd [6]: 0.045 nM
 |  |  |  | 0.556 nM |  |  |  |  |  |  |  | no binding | 0.698 nM | 2.07 nM | 01C06 in human IgG4(PE) format (antibody, V domains shown) VH: QVQLVESGGGLVKPGGSLRLSCAASGFTFSDYYMNWIRQAPGKGLEWIADISSRDNTIYYADSVKGRFTISRDNAKNSLYLQMNSLRAEDTAVYYCARERGFGDYFGMDVWGQGTTVTVSS VL: AIQLTQSPSSLSASVGDRVTIACRASQDISSALAWFRQTPGKTPKLLIYDASSLESGVPSRFLGSGSGTDFTLTISSLQPEDFAIYYCQQFNTYPLTFGGGTKVEIK | binding result [20]: binds
